The record followed here is article doi:10.1101/2021.06.30.450611.

B1: full-length recombinant human KIF1C-GFP (wildtype) (natural protein)
chain: MAGASVKVAVRVRPFNARETSQDAKCVVSMQGNTTSIINPKQSKDAPKSFTFDYSYWSHTSTEDPQFASQQQVYRDIGEEMLLHAFEGYNVCIFAYGQTGAGKSYTMMGRQEPGQQGIVPQLCEDLFSRVSENQSAQLSYSVEVSYMEIYCERVRDLLNPKSRGSLRVREHPILGPYVQDLSKLAVTSYADIADLMDCGNKARTVAATNMNETSSRSHAVFTIVFTQRCHDQLTGLDSEKVSKISLVDLAGSERADSSGARGMRLKEGANINKSLTTLGKVISALADMQSKKRKSDFIPYRDSVLTWLLKENLGGNSRTAMIAALSPADINYEETLSTLRYADRTKQIRCNAIINEDPNARLIRELQEEVARLRELLMAQGLSASALEGLKTEEGSVRGALPAVSSPPAPVSPSSPTTHNGELEPSFSPNTESQIGPEEAMERLQETEKIIAELNETWEEKLRKTEALRMEREALLAEMGVAVREDGGTVGVFSPKKTPHLVNLNEDPLMSECLLYHIKDGVTRVGQVDMDIKLTGQFIREQHCLFRSIPQPDGEVVVTLEPCEGAETYVNGKLVTEPLVLKSGNRIVMGKNHVFRFNHPEQARLERERGVPPPPGPPSEPVDWNFAQKELLEQQGIDIKLEMEKRLQDLENQYRKEKEEADLLLEQQRLYADSDSGDDSDKRSCEESWRLISSLREQLPPTTVQTIVKRCGLPSSGKRRAPRRVYQIPQRRRLQGKDPRWATMADLKMQAVKEICYEVALADFRHGRAEIEALAALKMRELCRTYGKPDGPGDAWRAVARDVWDTVGEEEGGGAGSGGGSEEGARGAEVEDLRAHIDKLTGILQEVKLQNSSKDRELQALRDRMLRMERVIPLAQDHEDENEEGGEVPWAPPEGSEAAEEAAPSDRMPSARPPSPPLSSWERVSRLMEEDPAFRRGRLRWLKQEQLRLQGLQGSGGRGGGLRRPPARFVPPHDCKLRFPFKSNPQHRESWPGMGSGEAPTPLQPPEEVTPHPATPARRPPSPRRSHHPRRNSLDGGGRSRGAGSAQPEPQHFQPKKHNSYPQPPQPYPAQRPPGPRYPPYTTPPRMRRQRSAPDLKESGAAV
B2: full-length recombinant human KIF1C(P176L)-GFP (natural protein)
chain: MAGASVKVAVRVRPFNARETSQDAKCVVSMQGNTTSIINPKQSKDAPKSFTFDYSYWSHTSTEDPQFASQQQVYRDIGEEMLLHAFEGYNVCIFAYGQTGAGKSYTMMGRQEPGQQGIVPQLCEDLFSRVSENQSAQLSYSVEVSYMEIYCERVRDLLNPKSRGSLRVREHPILGLYVQDLSKLAVTSYADIADLMDCGNKARTVAATNMNETSSRSHAVFTIVFTQRCHDQLTGLDSEKVSKISLVDLAGSERADSSGARGMRLKEGANINKSLTTLGKVISALADMQSKKRKSDFIPYRDSVLTWLLKENLGGNSRTAMIAALSPADINYEETLSTLRYADRTKQIRCNAIINEDPNARLIRELQEEVARLRELLMAQGLSASALEGLKTEEGSVRGALPAVSSPPAPVSPSSPTTHNGELEPSFSPNTESQIGPEEAMERLQETEKIIAELNETWEEKLRKTEALRMEREALLAEMGVAVREDGGTVGVFSPKKTPHLVNLNEDPLMSECLLYHIKDGVTRVGQVDMDIKLTGQFIREQHCLFRSIPQPDGEVVVTLEPCEGAETYVNGKLVTEPLVLKSGNRIVMGKNHVFRFNHPEQARLERERGVPPPPGPPSEPVDWNFAQKELLEQQGIDIKLEMEKRLQDLENQYRKEKEEADLLLEQQRLYADSDSGDDSDKRSCEESWRLISSLREQLPPTTVQTIVKRCGLPSSGKRRAPRRVYQIPQRRRLQGKDPRWATMADLKMQAVKEICYEVALADFRHGRAEIEALAALKMRELCRTYGKPDGPGDAWRAVARDVWDTVGEEEGGGAGSGGGSEEGARGAEVEDLRAHIDKLTGILQEVKLQNSSKDRELQALRDRMLRMERVIPLAQDHEDENEEGGEVPWAPPEGSEAAEEAAPSDRMPSARPPSPPLSSWERVSRLMEEDPAFRRGRLRWLKQEQLRLQGLQGSGGRGGGLRRPPARFVPPHDCKLRFPFKSNPQHRESWPGMGSGEAPTPLQPPEEVTPHPATPARRPPSPRRSHHPRRNSLDGGGRSRGAGSAQPEPQHFQPKKHNSYPQPPQPYPAQRPPGPRYPPYTTPPRMRRQRSAPDLKESGAAV
B3: full-length recombinant human KIF1C(R169W)-GFP (natural protein)
chain: MAGASVKVAVRVRPFNARETSQDAKCVVSMQGNTTSIINPKQSKDAPKSFTFDYSYWSHTSTEDPQFASQQQVYRDIGEEMLLHAFEGYNVCIFAYGQTGAGKSYTMMGRQEPGQQGIVPQLCEDLFSRVSENQSAQLSYSVEVSYMEIYCERVRDLLNPKSRGSLRVWEHPILGPYVQDLSKLAVTSYADIADLMDCGNKARTVAATNMNETSSRSHAVFTIVFTQRCHDQLTGLDSEKVSKISLVDLAGSERADSSGARGMRLKEGANINKSLTTLGKVISALADMQSKKRKSDFIPYRDSVLTWLLKENLGGNSRTAMIAALSPADINYEETLSTLRYADRTKQIRCNAIINEDPNARLIRELQEEVARLRELLMAQGLSASALEGLKTEEGSVRGALPAVSSPPAPVSPSSPTTHNGELEPSFSPNTESQIGPEEAMERLQETEKIIAELNETWEEKLRKTEALRMEREALLAEMGVAVREDGGTVGVFSPKKTPHLVNLNEDPLMSECLLYHIKDGVTRVGQVDMDIKLTGQFIREQHCLFRSIPQPDGEVVVTLEPCEGAETYVNGKLVTEPLVLKSGNRIVMGKNHVFRFNHPEQARLERERGVPPPPGPPSEPVDWNFAQKELLEQQGIDIKLEMEKRLQDLENQYRKEKEEADLLLEQQRLYADSDSGDDSDKRSCEESWRLISSLREQLPPTTVQTIVKRCGLPSSGKRRAPRRVYQIPQRRRLQGKDPRWATMADLKMQAVKEICYEVALADFRHGRAEIEALAALKMRELCRTYGKPDGPGDAWRAVARDVWDTVGEEEGGGAGSGGGSEEGARGAEVEDLRAHIDKLTGILQEVKLQNSSKDRELQALRDRMLRMERVIPLAQDHEDENEEGGEVPWAPPEGSEAAEEAAPSDRMPSARPPSPPLSSWERVSRLMEEDPAFRRGRLRWLKQEQLRLQGLQGSGGRGGGLRRPPARFVPPHDCKLRFPFKSNPQHRESWPGMGSGEAPTPLQPPEEVTPHPATPARRPPSPRRSHHPRRNSLDGGGRSRGAGSAQPEPQHFQPKKHNSYPQPPQPYPAQRPPGPRYPPYTTPPRMRRQRSAPDLKESGAAV

The target in the assay is Taxol-stabilised microtubules assembled from pig tubulin (single molecule motility assay) (pig). Kind of assay: single molecule TIRF motility assay.
On to B1, for which the dwell time was 36.3 s. B2 came in with a dwell time of 25.8 s. In the case of B3 it was 16 s.
